B1: 16H7 variant, light chain N25Y (antibody, human IgG4 S228P, lambda, V domains shown)
VH: not shown
VL: SYVLTQPPSVSVAPGQTARITCGGYNIGSESVHWYQQKPGQAPVLVVYDDSDRPSGIPERFSGSNSGNTATLTISRVEAGDEADYYCQVWDGNSDHVVFGGGTKLTVLG
notes: IgG4 backbone
B2: 16H7 variant, light chain N26F (antibody, human IgG4 S228P, lambda, V domains shown)
VH: not shown
VL: SYVLTQPPSVSVAPGQTARITCGGNFIGSESVHWYQQKPGQAPVLVVYDDSDRPSGIPERFSGSNSGNTATLTISRVEAGDEADYYCQVWDGNSDHVVFGGGTKLTVLG
notes: IgG4 backbone
B3: 16H7 variant, light chain N26G (antibody, human IgG4 S228P, lambda, V domains shown)
VH: not shown
VL: SYVLTQPPSVSVAPGQTARITCGGNGIGSESVHWYQQKPGQAPVLVVYDDSDRPSGIPERFSGSNSGNTATLTISRVEAGDEADYYCQVWDGNSDHVVFGGGTKLTVLG
notes: IgG4 backbone
B4: 16H7 variant, light chain N26E (antibody, human IgG4 S228P, lambda, V domains shown)
VH: not shown
VL: SYVLTQPPSVSVAPGQTARITCGGNEIGSESVHWYQQKPGQAPVLVVYDDSDRPSGIPERFSGSNSGNTATLTISRVEAGDEADYYCQVWDGNSDHVVFGGGTKLTVLG
notes: IgG4 backbone
B5: 16H7 variant, light chain N26D (antibody, IgG4, V domains shown)
VH: not shown
VL: SYVLTQPPSVSVAPGQTARITCGGNDIGSESVHWYQQKPGQAPVLVVYDDSDRPSGIPERFSGSNSGNTATLTISRVEAGDEADYYCQVWDGNSDHVVFGGGTKLTVLG
notes: IgG4 backbone; copies: 2 + 2
B6: 16H7 variant, light chain N26M (antibody, human IgG4 S228P, lambda, V domains shown)
VH: not shown
VL: SYVLTQPPSVSVAPGQTARITCGGNMIGSESVHWYQQKPGQAPVLVVYDDSDRPSGIPERFSGSNSGNTATLTISRVEAGDEADYYCQVWDGNSDHVVFGGGTKLTVLG
notes: IgG4 backbone
B7: 16H7 variant, light chain N26K (antibody, human IgG4 S228P, lambda, V domains shown)
VH: not shown
VL: SYVLTQPPSVSVAPGQTARITCGGNKIGSESVHWYQQKPGQAPVLVVYDDSDRPSGIPERFSGSNSGNTATLTISRVEAGDEADYYCQVWDGNSDHVVFGGGTKLTVLG
notes: IgG4 backbone
B8: 16H7 variant, light chain N26I (antibody, IgG4, V domains shown)
VH: not shown
VL: SYVLTQPPSVSVAPGQTARITCGGNIIGSESVHWYQQKPGQAPVLVVYDDSDRPSGIPERFSGSNSGNTATLTISRVEAGDEADYYCQVWDGNSDHVVFGGGTKLTVLG
notes: IgG4 backbone; copies: 2 + 2
B9: 16H7 variant, light chain N26H (antibody, human IgG4 S228P, lambda, V domains shown)
VH: not shown
VL: SYVLTQPPSVSVAPGQTARITCGGNHIGSESVHWYQQKPGQAPVLVVYDDSDRPSGIPERFSGSNSGNTATLTISRVEAGDEADYYCQVWDGNSDHVVFGGGTKLTVLG
notes: IgG4 backbone
B10: 16H7 variant, light chain N26A (antibody, human IgG4 S228P, lambda, V domains shown)
VH: not shown
VL: SYVLTQPPSVSVAPGQTARITCGGNAIGSESVHWYQQKPGQAPVLVVYDDSDRPSGIPERFSGSNSGNTATLTISRVEAGDEADYYCQVWDGNSDHVVFGGGTKLTVLG
notes: IgG4 backbone
B11: 16H7 variant, light chain N26C (antibody, IgG4, V domains shown)
VH: not shown
VL: SYVLTQPPSVSVAPGQTARITCGGNCIGSESVHWYQQKPGQAPVLVVYDDSDRPSGIPERFSGSNSGNTATLTISRVEAGDEADYYCQVWDGNSDHVVFGGGTKLTVLG
notes: IgG4 backbone; copies: 2 + 2
B12: 16H7 variant, light chain N26L (antibody, human IgG4 S228P, lambda, V domains shown)
VH: not shown
VL: SYVLTQPPSVSVAPGQTARITCGGNLIGSESVHWYQQKPGQAPVLVVYDDSDRPSGIPERFSGSNSGNTATLTISRVEAGDEADYYCQVWDGNSDHVVFGGGTKLTVLG
notes: IgG4 backbone

Experiments:
[1] = target: human FGFR1c/KLB cell surface receptor complex on iLite FGF21 reporter cells (human, UniProt P11362 22-822; Q86Z14 1-1044); test: cell-based or functional assay; as to Mean E max (%): reference of the scale not given here
Chain of human FGFR1c/KLB cell surface receptor complex on iLite FGF21 reporter cells (P11362 22-822, chain 1 of 2): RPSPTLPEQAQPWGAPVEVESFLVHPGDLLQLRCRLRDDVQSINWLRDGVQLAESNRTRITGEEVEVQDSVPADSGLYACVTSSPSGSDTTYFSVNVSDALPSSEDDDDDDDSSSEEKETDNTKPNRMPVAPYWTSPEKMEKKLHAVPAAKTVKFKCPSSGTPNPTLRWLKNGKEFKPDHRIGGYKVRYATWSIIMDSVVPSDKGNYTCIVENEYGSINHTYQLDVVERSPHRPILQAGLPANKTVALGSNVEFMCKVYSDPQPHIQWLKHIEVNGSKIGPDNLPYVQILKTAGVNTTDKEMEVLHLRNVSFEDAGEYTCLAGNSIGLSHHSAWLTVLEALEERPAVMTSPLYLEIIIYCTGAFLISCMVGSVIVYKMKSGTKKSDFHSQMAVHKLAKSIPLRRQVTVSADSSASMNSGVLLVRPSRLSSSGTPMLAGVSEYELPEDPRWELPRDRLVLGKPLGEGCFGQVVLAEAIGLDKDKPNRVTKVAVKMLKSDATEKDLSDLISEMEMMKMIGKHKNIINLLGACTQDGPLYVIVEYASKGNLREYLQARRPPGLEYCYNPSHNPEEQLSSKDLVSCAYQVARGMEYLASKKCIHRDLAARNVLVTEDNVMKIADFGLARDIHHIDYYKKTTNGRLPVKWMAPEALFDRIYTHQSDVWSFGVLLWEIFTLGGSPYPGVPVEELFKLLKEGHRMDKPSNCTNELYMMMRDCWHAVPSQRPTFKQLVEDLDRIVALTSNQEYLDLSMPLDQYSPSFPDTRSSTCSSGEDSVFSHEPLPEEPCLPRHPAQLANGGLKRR
Chain of human FGFR1c/KLB cell surface receptor complex on iLite FGF21 reporter cells (Q86Z14 whole entry, chain 2 of 2): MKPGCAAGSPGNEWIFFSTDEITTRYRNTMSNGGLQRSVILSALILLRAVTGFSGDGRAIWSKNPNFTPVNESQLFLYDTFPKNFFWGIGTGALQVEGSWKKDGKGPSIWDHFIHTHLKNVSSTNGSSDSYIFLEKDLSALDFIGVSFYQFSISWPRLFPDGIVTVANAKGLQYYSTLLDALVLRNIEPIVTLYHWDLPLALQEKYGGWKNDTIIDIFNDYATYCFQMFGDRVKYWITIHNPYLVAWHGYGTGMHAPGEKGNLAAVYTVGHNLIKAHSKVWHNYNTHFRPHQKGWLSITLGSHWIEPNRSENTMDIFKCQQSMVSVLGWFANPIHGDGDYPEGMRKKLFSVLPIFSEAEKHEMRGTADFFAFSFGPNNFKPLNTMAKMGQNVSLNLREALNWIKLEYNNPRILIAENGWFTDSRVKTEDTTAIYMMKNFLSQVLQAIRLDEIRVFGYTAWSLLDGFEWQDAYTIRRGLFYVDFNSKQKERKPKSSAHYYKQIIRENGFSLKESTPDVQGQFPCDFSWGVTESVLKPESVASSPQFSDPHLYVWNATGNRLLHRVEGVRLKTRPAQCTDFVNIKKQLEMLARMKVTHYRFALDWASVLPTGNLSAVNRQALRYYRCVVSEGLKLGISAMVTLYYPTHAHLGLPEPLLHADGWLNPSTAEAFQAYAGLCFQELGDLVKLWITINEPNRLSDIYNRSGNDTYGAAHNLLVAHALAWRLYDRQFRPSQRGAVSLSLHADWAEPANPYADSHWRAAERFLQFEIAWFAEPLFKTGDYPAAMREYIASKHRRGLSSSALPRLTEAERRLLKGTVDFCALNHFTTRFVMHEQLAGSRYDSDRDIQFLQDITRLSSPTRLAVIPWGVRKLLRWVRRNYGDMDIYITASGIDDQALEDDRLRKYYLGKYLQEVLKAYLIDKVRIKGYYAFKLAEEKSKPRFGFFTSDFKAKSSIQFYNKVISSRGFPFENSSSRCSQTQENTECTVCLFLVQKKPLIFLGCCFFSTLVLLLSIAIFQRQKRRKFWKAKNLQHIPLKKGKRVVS

human beta-Klotho (KLB) = target: T1, human beta-Klotho (KLB) (human, UniProt Q86Z14 53-997); test: BLI off-rate screen (Octet), Ab captured via Fc;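 also: antibody supernatants applied at 25 µg/mL, dissociation monitored over 1800 s in D-PBS with 0.1% BSA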
T1 construct: also called human KLB
T1 sequence (looked up): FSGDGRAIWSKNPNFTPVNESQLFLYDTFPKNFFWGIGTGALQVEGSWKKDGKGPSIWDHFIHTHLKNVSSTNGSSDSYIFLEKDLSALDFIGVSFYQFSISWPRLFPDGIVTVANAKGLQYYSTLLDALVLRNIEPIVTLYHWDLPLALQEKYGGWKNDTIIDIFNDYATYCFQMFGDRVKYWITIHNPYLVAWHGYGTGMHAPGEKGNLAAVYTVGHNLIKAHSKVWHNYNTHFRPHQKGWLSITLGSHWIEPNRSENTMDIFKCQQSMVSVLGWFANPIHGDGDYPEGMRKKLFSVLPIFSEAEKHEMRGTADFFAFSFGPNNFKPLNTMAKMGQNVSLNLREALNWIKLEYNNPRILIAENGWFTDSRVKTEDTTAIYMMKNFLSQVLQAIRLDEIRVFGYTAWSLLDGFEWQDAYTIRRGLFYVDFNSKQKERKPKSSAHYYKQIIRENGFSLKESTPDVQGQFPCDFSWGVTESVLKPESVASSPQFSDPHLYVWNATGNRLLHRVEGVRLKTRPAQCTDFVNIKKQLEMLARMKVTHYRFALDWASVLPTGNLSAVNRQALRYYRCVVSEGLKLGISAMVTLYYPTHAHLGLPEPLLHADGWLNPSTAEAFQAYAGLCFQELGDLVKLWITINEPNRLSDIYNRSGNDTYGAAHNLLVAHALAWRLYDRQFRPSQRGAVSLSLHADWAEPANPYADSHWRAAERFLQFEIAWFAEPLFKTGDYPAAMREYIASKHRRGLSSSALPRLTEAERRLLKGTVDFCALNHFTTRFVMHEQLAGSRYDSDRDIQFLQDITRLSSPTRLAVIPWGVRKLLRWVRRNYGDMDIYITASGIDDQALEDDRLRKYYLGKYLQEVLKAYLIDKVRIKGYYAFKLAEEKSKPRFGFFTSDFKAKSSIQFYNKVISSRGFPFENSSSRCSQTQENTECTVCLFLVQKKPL

Binder	Mean E max (%) [1] [%]	Mean EC50 [1] [nM]	koff (human beta-Klotho (KLB)) [s⁻¹]
B1	104	0.099	3.1e-05
B2	95	0.158	5.4e-05
B3	94	0.097	3.7e-05
B4	106	0.106	7.2e-05
B5	101	0.123	5.6e-05
B6	111	0.153	2.2e-05
B7	104	0.143	1e-07
B8	110	0.113	6.3e-05
B9	112	0.138	3.5e-05
B10	98	0.106	4.6e-06
B11	103	0.146	1e-07
B12	103	0.131	4.4e-05

— patent US20220010021A1 (Sanofi, published 2022)
